This note sets out measurements from patent US20150268247A1, “Assay for Screening of Anti-Viral Compounds That Inhibit Specific Interaction Interfaces Between Cullin5 and an ElonginB/ElonginC/ CBF-beta/HIV-1 Vif Complex” (UNIVERSITY OF ROCHESTER, priority 2012, published 2015).

The Kd is the constant that tells how readily two partners part at equilibrium.

In test [1] the target is T1, Vif/EloB/C/CBFβ quaternary complex (full-length HIV-1 HXB2 Vif(1-192) / ElonginB 1-118 / ElonginC 17 (HIV-1 HXB2; human), P69720. Briefly: fluorescence anisotropy, complex titrated into 25 nM 5-FAM peptide; Sd ± 1.0.
Test [2] has as its target T1, Vif/EloB/C/CBFβ quaternary complex …. Briefly: fluorescence anisotropy, complex titrated into 25 nM 5-FAM peptide; Sd ± 7.0. (In general: Fluorescence polarisation rises when a labelled molecule tumbles more slowly, as on binding a larger partner.)
Test [3] has the same target. In words: fluorescence anisotropy, complex titrated into 25 nM 5-FAM peptide; Sd ± 0.1.
For test [4] the target is unchanged. Briefly: fluorescence anisotropy, complex titrated into 25 nM 5-FAM peptide; Sd ± 4.2.

With LFSDVHAVCLWDDKGPAKIHQAL (modifications not checked) [Cul5(43-65) peptide], in test [1], the Kd came out at 4.7 µM. In test [2], LRQESVTKQQW (modifications not checked) [Cul5(30-40) peptide] came in with a Kd of 16 µM. KQQWFDLFSDVHAVCLW (modifications not checked) [Cul5(37-53) peptide] gave a Kd in test [3] of 1200 nM.

In test [3], LFSDVHAVCLWD (modifications not checked) [Cul5(43-54) peptide] returned a Kd of 2500 nM. Regarding KQQWFDLFSDVH (modifications not checked) [Cul5(37-48) peptide], in test [4], the Kd came to 15.6 µM.
